Test results published in PMC4335501.

Molecular target: HAdV-52 short fiber knob (human adenovirus type 52 (HAdV-52))
Assay: SPR; 52SFK captured by its His-tag on a Ni-NTA chip (700 RU); fetuin or asialofetuin type II as analytes, two-fold series 125 to 1 μM; 25°C; HBS-EP+; Biacore T100

B1: sialylated fetuin glycoprotein (natural protein)
chain: IPLDPVAGYKEPACDDPDTEQAALAAVDYINKHLPRGYKHTLNQIDSVKVWPRRPTGEVYDIEIDTLETTCHVLDPTPLANCSVRQQTQHAVEGDCDIHVLKQDGQFSVLFTKCDSSPDSAEDVRKLCPDCPLLAPLNDSRVVHAVEVALATFNAESNGSYLQLVEISRAQFVPLPVSVSVEFAVAATDCIAKEVVDPTKCNLLAEKQYGFCKGSVIQKALGGEDVRVTCTLFQTQPVIPQPQPDGAEAEAPSAVPDAAGPTPSAAGPPVASVVVGPSVVAVPLPLHRAHYDLRHTFSGVASVESSSGEAFHVGKTPIVGQPSIPGGPVRLCPGRIRYFKI
modifications: sialylated glycans
  Kd: 37 µM
